In patent US20200157519A1:
Residue numbers refer to the chain shown, from its start.

B1: phage-displayed 3D5 scFv (scFv)
scFv: DIQMTQSPSSLSASVGDRVTITCRASQDVSNNVAWYQQKPGKAPKLLIFWSPWLYSGVPSRFSGSGSGTDFTLTISSLQPEDFATYYCQQGWDSPVTFGQGTKVEIKRGGGGSGGGGSGGGGSEVQLVESGGGLVQPGGSLRLSCAASGFTISDFGIHWVRQAPGKGLEWVASIWPSGGYTYYADSVKGRFTISADTSKNTAYLQMNSLRAEDTAVYYCARSWFYSWYDYWGQGTLVTVSS
B2: scFv clone 7A3 (scFv, V domains shown)
VH: EVQLVESGGGLVQPGGSLRLSCAASGFTINDWSIHWVRQAPGKGLEWVAYIGPFWGSTFYADSVKGRFTISADTSKNTAYLQMNSLRAEDTAVYYCARGYFGFDYWGQGTLVTVSS
VL: DIQMTQSPSSLSASVGDRVTITCRASQDVGGWVAWYQQKPGKAPKLLISSPRSLYSGVPSRFSGSGSGTDFTLTISSLQPEDFATYYCQQYFSSPFTFGQGTKVEIKR
B3: scFv clone 3C2 (scFv, V domains shown)
VH: EVQLVESGGGLVQPGGSLRLSCAASGFTIGNSSIHWVRQAPGKGLEWVAGIWPYWGSTYYADSVKGRFTISADTSKNTAYLQMNSLRAEDTAVYYCARFGINNDGFMDYWGQGTLVTVSS
VL: B2 VL with G30S, P51T, R52G, F92Y, S93D, S94F, F96I
B4: scFv clone 8F2 (scFv, V domains shown)
VH: EVQLVESGGGLVQPGGSLRLSCAASGFTINNYGIHWVRQAPGKGLEWVAGIWPYWGYTYYADSVKGRFTISADTSKNTAYLQMNSLRAEDTAVYYCARFDSNSYSSYSDGFMDYWGQGTLVTVSS
VL: B2 VL with G30D, G31N, W32S, P51A, F92Y, S93N, S94Y, F96I

target: human fibrinogen (human) (UniProt P02671); assay: single colony ELISA, secreted scFv on coated fibrinogen (negative control antigen), anti-E-tag-HRP
Sequence (P02671 20-629 limits assumed, chain 1 of 3): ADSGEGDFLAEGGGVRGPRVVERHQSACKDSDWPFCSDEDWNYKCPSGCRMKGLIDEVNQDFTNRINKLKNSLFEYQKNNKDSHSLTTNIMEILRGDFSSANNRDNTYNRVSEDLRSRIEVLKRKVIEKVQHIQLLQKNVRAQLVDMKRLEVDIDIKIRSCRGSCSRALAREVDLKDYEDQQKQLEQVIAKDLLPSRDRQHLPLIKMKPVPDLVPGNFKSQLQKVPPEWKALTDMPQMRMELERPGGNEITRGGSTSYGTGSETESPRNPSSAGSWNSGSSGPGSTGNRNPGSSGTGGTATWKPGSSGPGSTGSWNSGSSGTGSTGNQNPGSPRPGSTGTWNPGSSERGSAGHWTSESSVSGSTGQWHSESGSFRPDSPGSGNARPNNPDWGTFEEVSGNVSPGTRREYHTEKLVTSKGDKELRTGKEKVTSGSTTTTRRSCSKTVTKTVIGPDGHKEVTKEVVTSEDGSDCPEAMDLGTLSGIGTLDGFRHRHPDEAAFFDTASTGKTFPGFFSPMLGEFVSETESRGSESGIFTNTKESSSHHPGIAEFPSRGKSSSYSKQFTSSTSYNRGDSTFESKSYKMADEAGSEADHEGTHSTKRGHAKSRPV
Sequence (P02675 31-491 limits assumed, chain 2 of 3, further chain): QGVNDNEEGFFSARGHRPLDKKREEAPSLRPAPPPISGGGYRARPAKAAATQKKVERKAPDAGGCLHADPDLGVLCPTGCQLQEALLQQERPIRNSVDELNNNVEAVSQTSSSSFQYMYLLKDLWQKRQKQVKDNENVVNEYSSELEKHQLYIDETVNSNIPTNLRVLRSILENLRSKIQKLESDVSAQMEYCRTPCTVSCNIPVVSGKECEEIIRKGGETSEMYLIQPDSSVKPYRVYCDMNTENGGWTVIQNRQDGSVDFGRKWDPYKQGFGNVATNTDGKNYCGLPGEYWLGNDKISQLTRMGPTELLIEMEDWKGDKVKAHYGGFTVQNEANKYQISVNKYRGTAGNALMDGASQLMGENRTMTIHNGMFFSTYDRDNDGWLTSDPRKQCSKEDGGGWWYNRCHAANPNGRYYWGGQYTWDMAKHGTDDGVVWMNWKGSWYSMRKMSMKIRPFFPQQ
Sequence (P02679 other isoform, or with tags, fused parts or gaps limits assumed, chain 3 of 3, further chain): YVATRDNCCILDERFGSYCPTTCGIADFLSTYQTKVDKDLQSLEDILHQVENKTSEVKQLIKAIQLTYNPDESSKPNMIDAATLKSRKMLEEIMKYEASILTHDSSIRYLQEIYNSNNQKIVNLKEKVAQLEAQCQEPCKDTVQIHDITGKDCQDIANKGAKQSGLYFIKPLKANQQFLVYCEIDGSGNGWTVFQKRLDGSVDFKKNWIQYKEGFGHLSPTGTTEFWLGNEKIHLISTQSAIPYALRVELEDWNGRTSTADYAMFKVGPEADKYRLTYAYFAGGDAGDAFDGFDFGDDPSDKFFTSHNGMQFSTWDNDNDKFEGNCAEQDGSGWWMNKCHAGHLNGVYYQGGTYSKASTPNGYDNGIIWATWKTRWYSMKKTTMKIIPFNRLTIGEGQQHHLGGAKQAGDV

Compared with B1, B2 is higher in OD450 Fibrinogen: 0.0022 OD450 for the first, 0.0209 OD450 for the second.

Going from B3 to B4, the OD450 Fibrinogen rises from 0.0117 OD450 to 0.0366 OD450.
